Assay results as given in the supplement of paper PMC9170038.

Columns and labels:
MS2 coat protein [1] = assay: apparent KD of MS2 coat protein; designed switch direction (-1 OFF switch, 1 ON switch): 1; higher = weaker reporter binding
Outline: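 For each design, the apparent KD is the median over clusters of curves fitted to normalised cluster fluorescence. Clusters held RNA switches with common flanks, transcribed on Illumina chips by stalled E. coli RNA polymerase. These were titrated with SNAP-549-labelled MS2 coat protein, doubling from 0.7 or 1.5 nM to 3 µM, without input, with 200 uM small-molecule ligand, or with an oligonucleotide input.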

MS2 coat protein [2] = assay: apparent KD of MS2 coat protein; higher = weaker reporter binding; conditions: Eterna round: R107
Outline: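 Apparent KD per design is the median of normalised cluster binding-curve fits. Designed RNA switches transcribed on-chip from Illumina sequencing clusters were titrated with SNAP-549-labelled MS2 coat protein in twofold steps from 0.7 or 1.5 nM to 3 µM, with 0.8–1.5 h down to 10–20 min per step. Buffer: 100 mM Tris-HCl pH 7.5, 80 mM KCl, 4 mM MgCl2, without or with constant ligand.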

[3] = input ligand: microRNA oligo, concentration not stated
[4] = input ligand: theophylline 20 uM
[5] = input ligand: theophylline 2 mM
[6] = input ligand: tryptophan 2.4 mM

Row | Sequence | apparent KD of MS2 coat protein (MS2 coat protein [2]; input ligand: arginine 13.2 mM) [µM] | apparent KD of MS2 coat protein (MS2 coat protein [2]; input ligand: none) [µM] | apparent KD of MS2 coat protein (MS2 coat protein [2]; [4]) [µM] | apparent KD of MS2 coat protein (MS2 coat protein [2]; [5]) [µM] | apparent KD of MS2 coat protein (MS2 coat protein [2]; [6]) [µM] | other results
1 | UUAAUGAUGUAAGGAUAUACAUGAGGAUUUCUCGUAGAAGGUACAAGACAUGAGGAUCACCCAUGUGUCGCUCAAUAGAGCGUA [Mat - Same State NG 1 - JL mod - D19] (Eterna round: R96, puzzle: Same State NG 1) | – | – | – | – | – | apparent KD of MS2 coat protein (MS2 coat protein [1]; input ligand: FMN 200 uM): 0.268 µM; apparent KD of MS2 coat protein (MS2 coat protein [1]; [3]): 0.138 µM; apparent KD of MS2 coat protein (MS2 coat protein [1]; input ligand: none): 0.292 µM
2 | AGUCCAGCCUGAGCUGGACAAAAGCAUGUACAUGAGGAUCACCCAUGUCAUGUACAAGCUUUUUGUUCGUCUUAAAA [Zipper 46 - 12] (puzzle: Sensor for hsa-mir-208a) | – | – | – | – | – | apparent KD of MS2 coat protein (MS2 coat protein [1]; Eterna round: R95, input ligand: FMN 200 uM): 0.794 µM; apparent KD of MS2 coat protein (MS2 coat protein [1]; Eterna round: R95, input ligand: microRNA oligo, concentration not stated): 0.0148 µM; apparent KD of MS2 coat protein (MS2 coat protein [1]; Eterna round: R95, input ligand: none): 0.5 µM
3 | UGUACCUUCACAGGAUAUCAUGCGAAAAUUGCGUGAGAAGGGUGAAUACGGUGUUCAUUGUUGCACAUGAGGAUCACCCAUGUA [SameState NG1 #55] (Eterna round: R96, puzzle: Same State NG 1) | – | – | – | – | – | apparent KD of MS2 coat protein (MS2 coat protein [1]; input ligand: FMN 200 uM): 0.269 µM; apparent KD of MS2 coat protein (MS2 coat protein [1]; [3]): 0.0749 µM; apparent KD of MS2 coat protein (MS2 coat protein [1]; input ligand: none): 0.259 µM
4 | UGUAUACAUGAGGAUCACCCAUGUCAACGUAGUCGAGGAUAUGGGCAGCCGUGAGGCGUACCAGAAGGCGAAGAGG [JL-ss1-3.05 ViennaUCT mod] (Eterna round: R96, puzzle: Same State 1) | – | – | – | – | – | apparent KD of MS2 coat protein (MS2 coat protein [1]; input ligand: FMN 200 uM): 0.0365 µM; apparent KD of MS2 coat protein (MS2 coat protein [1]; [3]): 0.104 µM; apparent KD of MS2 coat protein (MS2 coat protein [1]; input ligand: none): 0.151 µM
5 | GGGAUAUAGGCGGCCGCCACUGAUUUUCAUAUAUAUAUAACAUGAGGAUCACCCAUGUAGAUAUACAGGACCGGGCCUAUAUUUU [aaaD] | 0.0148 | 0.0152 | 0.0174 | 0.0211 | 0.0135 | –
6 | UCGCGAUAGAGAAGGAGCGUCAACACCACUUAACAUGAGGAUCACCCAUGUGUUACUUUGUGACAGGUAGGUCGCUCUAGCGCUU [JR_Nu_ExcArginiB_Sub026] | 0.0211 | 0.0193 | 0.0253 | 0.0209 | 0.0184 | –
7 | AAUAAUAAGGCGGCCGCCACUAAACAUGAGGAUCACCCAUGUCUCGAGCGCAUACAUAAGGGAUGUAGGACCGGGCCAAUAAUAA [Exclusion - Tryptophan B (Freestyle 1)] | 0.019 | 0.0235 | 0.0257 | 0.023 | 0.0213 | –
8 | CCGCCUGCCUCACAUGAGGAUCACCCAUGUCGAGGACCGGUACGGCCGCCACUCGUCGUCGGUAAUACAGGCAUUGAAUAAUAUA [Vetire] | 0.0121 | – | 0.0148 | 0.0121 | – | –
9 | AUGGAGACCUCGGCCGCCACUCUCCAUGAGGAUCUCCCAUGUAACAUGAGGAUCACCCAUGUGCUGAGGACCGGGAGGUCCUGAA [Same State Tryptophan B GF 18] | 0.0092 | – | 0.0158 | 0.0125 | – | –
10 | UCAAGUGAACCAUGGAAACAUUCAAUAGAUACCAGCAUUAAAACCUGCCCUUGGCAGCUAUGAACAUGAGGAUCACCCAUGUGAA [theeternabot_exclusion_MS2_Theo_A_21] | 0.0173 | – | 0.0233 | – | 0.0192 | –
11 | AAGGUAUCACAGAGGUGAUUCAACUGUGAUACCAGCUAGGAAACUAGCCCUUGGCAGCACAUGAGGAUCACCCAUGUAAGAAUAA [(T)'-(M)'-(T1)-(T2)-(M1)-(M2)_Design3_2/19/17] | 0.0363 | 0.0365 | 0.0336 | 0.128 | 0.0371 | –
12 | GAUUGGAUUUGAAGGAGCGUCGAAAAUGGGUAAACAUGAGGAUCACCCAUGUAAAGGGAACGACAGGUAGGUCGCAAAUUUAAUC [AstromonsSSArgB#31] | 0.0847 | 0.111 | 0.148 | 0.213 | 0.162 | –
13 | UGUACCAUGUCGGCCGCCACUCAUGAUAAACAUGAGGAUCACCCAUGUAGCGUCAAAGACGCUAUGAGGACCGGGACAUGGUACU [TryBS Zipper 2 #StaticStem #Zipper] | 0.0325 | – | 0.0492 | 0.045 | – | –
14 | UCGCUCUGGGUGAAUCCCAGAGAUAUGGAAGGAGCGGACGAAAGUCCAGGUAGGUCGCCAUCGAACAUGAGGAUCACCCAUGUAC [Same State - Arginine A (Freestyle 27)] | 0.0621 | 0.0476 | 0.0578 | 0.0766 | 0.0768 | –
15 | UGUUAUGUGGGAAGGAGCGCAUACUUCACAUGAGGAUCACCCAUGUCAAGACGUGAGUCAGUGCAGGUAGGUCGCCUAGUUAAGA [Same State - Arginine B (Freestyle 17)] | 0.036 | 0.0739 | 0.0751 | 0.0788 | 0.045 | –
16 | UUACAUGAGGAUCACCCAUGUCAUAAUGAUACCAGAUAGUUGAUGAUCCCUUGGCAGCAUAGUACCUAGACAUGUGAGUCAUAGG [Ab] | 0.116 | – | 0.13 | – | 0.0768 | –
17 | AGACCCUUCACGGCCGCCACUCAUUUUAAGUAGAGAGAGUACAUGAGGAUCACCCAUGUGAGAGAGAGGACCGGGUGAGAUAUUA [ss-trypB-0] | 0.0139 | – | 0.0214 | 0.0213 | – | –
18 | UUAAUCAUUGAUGAAAACAUUAAUGCAGAAGGAGCGUGAUAAAACACAGGUAGGUCGCUGAAGGGAACAUGAGGAUCACCCAUGU [AstrosSSArgA#16] | 0.0273 | 0.0281 | 0.0365 | 0.0336 | 0.0308 | –
19 | AGGACAUCGAGAAGGAGCGCAUCCAAACCACACAUGAGGAUCACCCAUGUAUAAAUAUGCAUGCAGGUAGGUCGCUCGGCGUCUU [Leanerin] | 0.0575 | 0.099 | 0.121 | 0.0857 | 0.0874 | –
20 | UUAGAUAUGACAGAUACCAGCGUGUUGUUGAACAUGAGGAUCACCCAUGUAGUGAUCGAGCGCCCUUGGCAGCUGGUGUGUUUGG [7.Q] | 0.0776 | – | 0.174 | – | 0.225 | –
21 | UUAAUCUUAGAAGAAAACUUUUAAGCAGAAGGAGCGUGAUAAAACACAGGUAGGUCGCUGAAGGGAACAUGAGGAUCACCCAUGU [AstrosSSArgA#18] | 0.0293 | 0.022 | 0.0289 | 0.0294 | 0.0231 | –
22 | AAGCUGCCAAGAACAUGGGUGAAAUGUGAUACCAGCUAGGAAACUAGCCCUUGGCAGCACAUGAGGAUCACCCAUGUAAUAAUAA [(T)'-(M)'-(T1)-(T2)-(M1)-(M2)_Design2_2/19/17] | 0.0757 | – | 0.264 | – | 0.377 | –
23 | GGUUACUCUACGGCCGCCACUGAUUAAUUAUAAUCCUGUACAUAAACAUGAGGAUCACCCAUGUACAGGACCGGGUAGUGUAACC [Tryptophan B 10] | 0.0323 | – | 0.0462 | 0.0363 | – | –
24 | AAACUGGGUGUAAAAUAAAUAAUCACUGAUACCAGACUAUUUUAUGUCCCUUGGCAGCAGAAACAUGAGGAUCACCCAUGUAAUA [JR_Nu_ExcTheophyA_Sub025] | 0.0212 | – | 0.0253 | – | 0.0267 | –
25 | AACAUGAGGAUCACCCAUGUAUUGGGUGAUACCAGCCUGAAUAAUGGCCCUUGGCAGCACCGCGCUAACUUUAUGUCUGCGAAAC [Erterean] | 0.0873 | – | 0.456 | – | 0.118 | –
26 | AGCCACUCGAACAUGGGUGACGAGUGGCAACGAGGACCGGUACGGCCGCCACUCGAAUAAACAUGAGGAUCACCCAUGUACAAAU [T''-M'-T'-T-MS2 - Design 9] | 0.0331 | – | 0.146 | 0.355 | – | –
27 | ACUAGUUGUGCAGAUACCAGACAUGAGGAUCACCCAUGUUUGGGUUGUUCGCAACUUCCUGUCCCUUGGCAGCUGUACAUCUAGA [Omei Theo B Exc v5] | 0.0189 | – | 0.0469 | – | 0.0243 | –
28 | UAAUUCACUAUUCACGGUCCGAUGUUCGAUACCAGAUCAUUUCGAAUCCCUUGGCAGCGAUUAACAUGAGGAUCACCCAUGUAAC [theeternabot_exclusion_MS2_Theo_A_35] | 0.0284 | – | 0.0406 | – | 0.0386 | –
29 | AAUAAGAGCUCGGAUACCAGCGAAAACAGGCACAUGAGGAUCACCCAUGUUAACGCACUGCGCCCUUGGCAGCCGCACGUGUGUC [theeternabot_sameState_MS2_Theo_B_39] | 0.0196 | – | 0.0254 | – | 0.022 | –
30 | CCGCACAUGAGGAUCACCCAUGUCCGGGUUCGAGGACCGGUACGGCCGCCACUCGGACAUGUGCGCCCUUCAUGCACUGUAUAAA [Macetius] | 0.0389 | – | 0.158 | 0.239 | – | –
